The target in experiment [1] is human BMP9 recombinant protein (prepared by the method of Example 12 of WO2010/126169; N-terminal His-type hBMP9 complex, vector pLN1V5_hBMP9) (human) (UniProt Q9UK05). Description: SPR (BIAcore 2000), antibody captured by anti-mouse IgG on CM5, human BMP9 as analyte, single cycle kinetics. (SPR reads the build-up and loss of mass on a sensor chip optically.)
The target in experiment [2] is T1, human BMP9 recombinant protein (prepared by the method of Example 12 of WO2010/126169); N-terminal His-type … (human, UniProt Q9UK05 23-319; Q9UK05 320-429).
T1 construct: not shown: N-terminal His tag (His6)
T1 sequence 1: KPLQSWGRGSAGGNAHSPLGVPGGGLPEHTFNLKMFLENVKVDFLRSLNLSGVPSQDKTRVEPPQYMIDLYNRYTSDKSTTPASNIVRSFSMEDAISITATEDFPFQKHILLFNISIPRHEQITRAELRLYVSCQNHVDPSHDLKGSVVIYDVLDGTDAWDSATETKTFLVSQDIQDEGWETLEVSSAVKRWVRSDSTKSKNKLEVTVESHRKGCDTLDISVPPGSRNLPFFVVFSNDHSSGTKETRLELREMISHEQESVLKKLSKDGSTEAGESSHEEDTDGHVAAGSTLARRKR
T1 sequence 2: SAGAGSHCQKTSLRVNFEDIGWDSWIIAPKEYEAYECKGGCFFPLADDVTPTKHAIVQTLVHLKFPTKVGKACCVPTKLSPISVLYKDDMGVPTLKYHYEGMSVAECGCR
As to the kind of experiment: SPR (BIAcore 2000), ratio of Kd values against the R&D antibody.

Experiment [3] addresses T2, human mature dimer BMP10 recombinant protein (R&D Systems, Cat#2926-BP) (human, UniProt O95393 317-424).
T2 construct: Bought protein; also called human BMP10
T2 sequence: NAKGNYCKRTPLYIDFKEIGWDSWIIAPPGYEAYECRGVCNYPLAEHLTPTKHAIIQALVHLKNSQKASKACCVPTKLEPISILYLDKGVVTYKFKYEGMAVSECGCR
Description: solid-phase antigen ELISA, biotin-labeled antibody on immobilized BMP10. For orientation: An ELISA detects its analyte on a solid surface through an enzyme-linked reagent.

The target of experiment [4] is T3, human BMP9/10 chimeric protein C (human, UniProt Q9UK05 23-319; Q9UK05 320-429).
T3 construct: also called BMP9/10 chimeric recombinant protein C; pLN1V5_hBMP9/10C product; not shown: His6 tag
T3 chain 1: T1 sequence 1
T3 chain 2: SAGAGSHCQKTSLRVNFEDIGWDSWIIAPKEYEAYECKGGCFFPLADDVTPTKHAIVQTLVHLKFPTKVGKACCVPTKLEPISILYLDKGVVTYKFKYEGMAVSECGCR
Description: solid-phase antigen ELISA, recombinant 3C7-3-1 antibody 1000 ng/mL on immobilized antigen (3 ug/mL).

The target in experiment [5] is T1, human BMP9 recombinant protein …. As to the kind of experiment: SPR (BIAcore 2000), antibody captured by anti-mouse IgG on CM5, human BMP9 as analyte, single cycle kinetics.
For experiment [6], the target named is T4, human mature dimer BMP9 recombinant protein (R&D Systems, Cat#3209-BP) (human, UniProt Q9UK05 320-429).
T4 sequence: T1 sequence 2
Description: cell-based or functional assay.

The target of experiment [7] is T4, human mature dimer BMP9 recombinant …. Description: solid-phase antigen ELISA, biotin-labeled antibody 100 ng/mL on immobilized BMP9.

Changes are numbered by the printed parent chain.

In general, Kd refers to a measure of binding affinity in units of concentration. Take “R&D antibody (anti-human BMP9 mouse monoclonal antibody, R&D Systems, clone No. 360107)”: the Kd in experiment [1] is 616 pM.

B1: 3C7-3-1 antibody (antibody, V domains shown)
VH: EVQLQQSGPELVKPGASVKISCKASGNSFTGYYMNWMKQSPEKSLEWIGEINPSTGATTYNQKFKAKATLTVDKSSSTAYMQLKSLTSEDFAVYYCTRRAAYYFDYWGQGTTLTVSS
VL: QIVLTQSPALMSASPGEKVTMTCSASSSVNYMYWYQQKPRSSPKPWIYLTSNLASGVPARFSGSGSGTSYSLTISSMEAEDAATYYCQQWSSNPRTFGGGTKLEIK
notes: Mouse IgG1, kappa; also called recombinant 3C7-3-1 antibody (mouse IgG1, kappa)
Turning to B1, the “binding activity, fold of the R&D antibody” value in experiment [2] came out at 23.3 fold. The results for the binding result in experiment [3] and in experiment [4] were “no binding (tested: 100 ng/mL antibody)” and “binds”, respectively. Besides, in experiment [5], the dissociation constant Kd came out at 26.4 pM. Also, in experiment [6], the “BMP9-dependent ALK1-derived signal inhibitory activity (luciferase, human ALK1 reporter cells ALK1/p(GCCG)12-Luc/HepG2(38.5), 10 ng/mL BMP9)” value was ~0.0625 fold of the R&D antibody.

B2: 3B7-3-3 antibody (antibody, V domains shown)
VH: EVQLQQSRPELVKPGASVKISCKASDYSFTDYYMNWVKQSPDKSLEWIGEISPSSGGTTYNQKFKAKATLTVDKSSSTAYMQLKSLTSEDSAVYYCATRGAFYFDYWGQGTALTVSS
VL: B1 VL with S14F, N30S, A59T, Y86F
notes: Mouse monoclonal antibody from a hybridoma (BMP9 KO mouse); also called anti-human BMP9 monoclonal antibody 3B7-3-3
In the case of B2, the binding result is on record as “no binding (tested: 100 ng/mL antibody)” in experiment [3] and “binds” in experiment [7].
